For assay [1], the target named is T1, hILT4-His-Avi tag (human, UniProt Q8N423 22-459).
T1 construct: also called monomeric human ILT4; extracellular region of hILT4 linked to a His-Avi tag
In words: SPR Biacore T200, 37 C; antibody captured on protein A/G chip, monomeric hILT4 as analyte; steady state fit. As to the method: (§1) The binding kinetics of the parent and germline reversion mutant anti-hILT4 antibodies (in the context of IgG1.3) were measured via Surface Plasmon Resonance (SPR) using a Biacore® T200 instrument. The assay temperature was 37° C. and the running buffer was PBS pH 7.4 supplemented with 0.05% Tween-20. Allanti-hILT4 antibodies were captured on a CM4 chip with pre-immobilized protein A/G (Pierce Thermo Scientific catalog number 21186). […] Monomeric human ILT4 was injected as analyte. […] The hILT4 used in this experiment, comprising the extracellular region of hILT4 linked to a His-Avi tag, consists of the following amino acid sequence: […]
For orientation: SPR reads the build-up and loss of mass on a sensor chip optically.

For assay [2], the target named is T1, hILT4-His-Avi tag. The assay is described as follows: SPR Biacore T200, 37 C; antibody captured on protein A/G chip, monomeric hILT4 as analyte. The protocol:
as §1

Assay [3] concerns the target T1, hILT4-His-Avi tag. In words: SPR Biacore T200, 37 C; antibody captured on protein A/G chip, monomeric hILT4 as analyte; kinetic fit. The protocol: as §1
Assay [4] has as its target T2, human ILT4 (hILT4) expressed on cells (human, UniProt Q8N423 22-597).
T2 construct: hILT4 on transfected CHO or 293T cells, or native on human monocytes and macrophages; also called LILRB2
In words: antibody titration flow cytometry binding assay on transfected cells, nonlinear regression. (Flow cytometry measures light scatter and fluorescence of single cells or particles in a stream.)

The target of assay [5] is T3, rhILT4-Fc (human, UniProt Q8N423-1 22-461).
T3 construct: also called rhILT4-Fc fusion protein with a murine Fc tail; not shown: murine Fc tail
T3 sequence (Q8N423 other isoform, or with tags, fused parts or gaps): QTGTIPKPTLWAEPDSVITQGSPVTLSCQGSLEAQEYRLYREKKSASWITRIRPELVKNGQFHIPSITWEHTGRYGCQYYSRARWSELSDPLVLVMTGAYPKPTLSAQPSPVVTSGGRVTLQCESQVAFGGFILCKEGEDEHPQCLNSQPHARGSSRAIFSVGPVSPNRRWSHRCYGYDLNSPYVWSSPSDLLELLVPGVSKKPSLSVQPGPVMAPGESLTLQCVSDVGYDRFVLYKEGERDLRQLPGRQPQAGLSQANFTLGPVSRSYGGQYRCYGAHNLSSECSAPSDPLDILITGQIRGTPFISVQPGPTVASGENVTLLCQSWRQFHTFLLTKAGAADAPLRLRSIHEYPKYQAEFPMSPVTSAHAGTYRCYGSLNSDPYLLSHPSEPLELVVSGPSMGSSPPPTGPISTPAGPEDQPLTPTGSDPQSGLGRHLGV
The assay is described as follows: flow cytometry blocking assay: antibody titrated (12 points) with rhILT4-Fc fixed at 30 µg/ml; rhILT4-Fc bound to HLA-B overexpressing CHO cells read as % Positive; blocked ligand: HLA-B; the IC50 table has no unit, the concentration axis is in ug/mL.

Assay [6] concerns the target T3, rhILT4-Fc. In words: flow cytometry blocking assay: antibody titrated (12 points) with rhILT4-Fc fixed at 30 µg/ml; rhILT4-Fc bound to HLA-A overexpressing CHO cells read as % Positive; blocked ligand: HLA-A; the IC50 table has no unit, the concentration axis is in ug/mL.
Assay [7] concerns the target T4, human LILRA2 (human, UniProt Q8N149 24-483).
T4 construct: whole, on cells; also called hLILRA2
In words: flow cytometry, 293T transfectants, antibody 20 µg/ml; stacked histograms, control: parental cells. As to the method:
(§2) Individual ILT family members were overexpressed in 293T cells. Each transfectant was stained with 20 μg/ml of anti-ILT4 antibodies followed by 1 μg/ml of anti-human IgG secondary mAb. Binding of the antibodies to each transfectant was measured by flow cytometry.

The target of assay [8] is T5, human ILT2 (human, UniProt Q8NHL6 24-650).
T5 construct: whole, on cells; also called hILT2
T5 sequence (Q8NHL6 24-650): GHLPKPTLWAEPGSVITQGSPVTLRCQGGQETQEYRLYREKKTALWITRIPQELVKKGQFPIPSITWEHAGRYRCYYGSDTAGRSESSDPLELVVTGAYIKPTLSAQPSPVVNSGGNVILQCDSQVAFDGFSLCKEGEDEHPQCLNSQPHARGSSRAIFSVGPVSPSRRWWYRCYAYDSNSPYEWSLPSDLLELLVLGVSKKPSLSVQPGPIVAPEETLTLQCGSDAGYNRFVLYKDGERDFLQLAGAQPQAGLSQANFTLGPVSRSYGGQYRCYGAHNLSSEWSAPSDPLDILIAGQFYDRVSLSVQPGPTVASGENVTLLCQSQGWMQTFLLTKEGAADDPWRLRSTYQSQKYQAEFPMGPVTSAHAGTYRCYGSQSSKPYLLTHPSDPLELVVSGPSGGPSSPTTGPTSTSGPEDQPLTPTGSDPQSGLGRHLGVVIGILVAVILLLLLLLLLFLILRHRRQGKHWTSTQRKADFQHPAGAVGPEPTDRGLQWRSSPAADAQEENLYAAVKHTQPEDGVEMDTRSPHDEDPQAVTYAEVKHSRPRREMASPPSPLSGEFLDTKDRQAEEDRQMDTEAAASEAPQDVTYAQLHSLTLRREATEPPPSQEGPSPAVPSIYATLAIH
Described as above. As to the method: as §2

For assay [9], the target named is T6, human LIR8 (human, UniProt O75023 24-590).
T6 construct: whole, on cells; also called hLIR8
T6 sequence (O75023 24-590): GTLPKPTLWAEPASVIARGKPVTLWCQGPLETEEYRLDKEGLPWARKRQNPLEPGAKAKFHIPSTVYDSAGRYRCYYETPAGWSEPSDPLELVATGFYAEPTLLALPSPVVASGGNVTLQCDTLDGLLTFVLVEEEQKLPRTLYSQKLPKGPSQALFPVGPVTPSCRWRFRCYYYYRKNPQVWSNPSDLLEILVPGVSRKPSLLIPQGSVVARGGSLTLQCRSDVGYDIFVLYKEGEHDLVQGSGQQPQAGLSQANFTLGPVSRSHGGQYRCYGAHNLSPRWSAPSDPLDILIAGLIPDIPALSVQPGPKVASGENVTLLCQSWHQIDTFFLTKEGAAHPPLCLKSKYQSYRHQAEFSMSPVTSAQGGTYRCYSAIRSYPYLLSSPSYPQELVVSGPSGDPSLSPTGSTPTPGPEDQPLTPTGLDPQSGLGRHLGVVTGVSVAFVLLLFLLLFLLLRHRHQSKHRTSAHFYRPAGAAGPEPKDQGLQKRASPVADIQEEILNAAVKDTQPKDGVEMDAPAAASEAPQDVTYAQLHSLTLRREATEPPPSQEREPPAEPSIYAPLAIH
Described as above. As to the method: as §2

The target of assay [10] is T7, human ILT3 (human, UniProt Q8NHJ6 22-448).
T7 construct: whole, on cells; also called hILT3
Described as above. The protocol:
as §2

For assay [11], the target named is T8, human LILRA4 (human, UniProt P59901 24-499).
T8 construct: whole, on cells; also called hLILRA4
T8 sequence (P59901 24-499): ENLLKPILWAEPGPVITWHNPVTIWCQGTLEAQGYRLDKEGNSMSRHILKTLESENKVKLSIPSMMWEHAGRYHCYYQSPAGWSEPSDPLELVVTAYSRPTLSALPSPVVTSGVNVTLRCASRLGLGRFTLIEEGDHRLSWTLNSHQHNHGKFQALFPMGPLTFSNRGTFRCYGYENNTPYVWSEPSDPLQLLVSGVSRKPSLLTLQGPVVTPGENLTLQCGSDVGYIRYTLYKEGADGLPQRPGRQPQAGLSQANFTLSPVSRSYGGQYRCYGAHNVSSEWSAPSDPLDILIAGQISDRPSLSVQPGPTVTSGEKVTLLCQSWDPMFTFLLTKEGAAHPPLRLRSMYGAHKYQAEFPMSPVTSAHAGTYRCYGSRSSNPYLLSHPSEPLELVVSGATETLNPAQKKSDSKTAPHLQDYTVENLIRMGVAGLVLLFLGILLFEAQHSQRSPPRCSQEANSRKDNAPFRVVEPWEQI
The assay is described as above. As to the method:
as §2

Assay [12] has as its target T9, human ILT5 (human, UniProt O75022 24-631).
T9 construct: whole, on cells; also called hILT5; LILRB3
The assay is described as above. The protocol: as §2

Assay [13] concerns the target T10, human LILRA1 (human, UniProt O75019 17-489).
T10 construct: whole, on cells; also called hLILRA1; LIRA1
The assay is described as above. The protocol: as §2

Assay [14] addresses T11, human LILRA3 (human, UniProt Q8N6C8 24-439).
T11 construct: whole, on cells; also called hLILRA3; LIRA3
Described as above. The protocol:
as §2

Assay [15] concerns the target T12, human LILRA6 (human, UniProt Q6PI73 24-481).
T12 construct: whole, on cells; also called hLILRA6
Described as above. As to the method: as §2

These results are taken from patent US20200079848A1 (Five Prime, published 2020).

The term Kd denotes the constant that tells how readily two partners part at equilibrium. The low end stands for tighter binding, the high end for weaker binding. As a reminder, the koff is the first-order rate constant of dissociation. A higher koff goes with fast dissociation. The term kon denotes the second-order rate constant of association. Read a low kon as slower complex formation. Broadly, the EC50 is the midpoint of the concentration-response curve. The term IC50 denotes the midpoint of a concentration-inhibition curve. A low value points to greater potency in that assay.

T1 sequence (Q8N423 other isoform, or with tags, fused parts or gaps): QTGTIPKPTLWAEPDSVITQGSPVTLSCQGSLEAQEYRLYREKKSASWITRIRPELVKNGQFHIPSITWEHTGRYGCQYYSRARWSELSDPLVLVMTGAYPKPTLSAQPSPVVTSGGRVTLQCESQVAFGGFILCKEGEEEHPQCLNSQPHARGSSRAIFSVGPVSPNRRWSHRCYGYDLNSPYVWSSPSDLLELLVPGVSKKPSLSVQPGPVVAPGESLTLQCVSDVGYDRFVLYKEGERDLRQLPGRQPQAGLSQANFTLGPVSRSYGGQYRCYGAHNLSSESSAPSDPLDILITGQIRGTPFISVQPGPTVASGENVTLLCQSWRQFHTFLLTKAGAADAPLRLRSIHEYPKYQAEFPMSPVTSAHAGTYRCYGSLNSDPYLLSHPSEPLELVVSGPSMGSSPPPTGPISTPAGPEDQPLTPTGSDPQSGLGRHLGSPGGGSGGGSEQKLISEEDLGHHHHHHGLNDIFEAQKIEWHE
T10 sequence (O75019 17-489): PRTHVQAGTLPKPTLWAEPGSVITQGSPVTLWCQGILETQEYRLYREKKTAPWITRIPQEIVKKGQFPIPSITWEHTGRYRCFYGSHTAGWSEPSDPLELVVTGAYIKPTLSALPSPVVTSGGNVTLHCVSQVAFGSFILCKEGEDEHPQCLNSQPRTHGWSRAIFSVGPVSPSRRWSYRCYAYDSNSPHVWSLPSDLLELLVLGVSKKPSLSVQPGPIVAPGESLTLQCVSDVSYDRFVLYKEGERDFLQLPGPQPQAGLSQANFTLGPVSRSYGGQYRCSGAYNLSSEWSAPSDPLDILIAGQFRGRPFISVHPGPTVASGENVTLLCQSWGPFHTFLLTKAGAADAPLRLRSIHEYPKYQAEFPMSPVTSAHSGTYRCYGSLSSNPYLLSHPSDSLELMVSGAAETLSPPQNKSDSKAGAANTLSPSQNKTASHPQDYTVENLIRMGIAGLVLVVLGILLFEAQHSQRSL
T4 sequence (Q8N149 24-483): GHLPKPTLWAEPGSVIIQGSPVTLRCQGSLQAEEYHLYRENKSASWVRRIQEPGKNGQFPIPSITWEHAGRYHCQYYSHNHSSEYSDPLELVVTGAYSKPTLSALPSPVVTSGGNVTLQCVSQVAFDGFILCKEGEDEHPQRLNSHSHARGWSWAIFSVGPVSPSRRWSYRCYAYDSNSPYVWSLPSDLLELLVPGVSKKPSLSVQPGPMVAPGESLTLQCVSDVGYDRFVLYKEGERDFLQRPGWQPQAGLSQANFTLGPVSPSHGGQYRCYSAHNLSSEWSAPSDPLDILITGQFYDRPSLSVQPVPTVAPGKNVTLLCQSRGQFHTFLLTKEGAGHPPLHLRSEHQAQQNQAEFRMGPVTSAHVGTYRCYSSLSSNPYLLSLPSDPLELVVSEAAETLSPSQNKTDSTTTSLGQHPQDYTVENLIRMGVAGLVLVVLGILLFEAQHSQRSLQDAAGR
T2 sequence (Q8N423 other isoform, or with tags, fused parts or gaps): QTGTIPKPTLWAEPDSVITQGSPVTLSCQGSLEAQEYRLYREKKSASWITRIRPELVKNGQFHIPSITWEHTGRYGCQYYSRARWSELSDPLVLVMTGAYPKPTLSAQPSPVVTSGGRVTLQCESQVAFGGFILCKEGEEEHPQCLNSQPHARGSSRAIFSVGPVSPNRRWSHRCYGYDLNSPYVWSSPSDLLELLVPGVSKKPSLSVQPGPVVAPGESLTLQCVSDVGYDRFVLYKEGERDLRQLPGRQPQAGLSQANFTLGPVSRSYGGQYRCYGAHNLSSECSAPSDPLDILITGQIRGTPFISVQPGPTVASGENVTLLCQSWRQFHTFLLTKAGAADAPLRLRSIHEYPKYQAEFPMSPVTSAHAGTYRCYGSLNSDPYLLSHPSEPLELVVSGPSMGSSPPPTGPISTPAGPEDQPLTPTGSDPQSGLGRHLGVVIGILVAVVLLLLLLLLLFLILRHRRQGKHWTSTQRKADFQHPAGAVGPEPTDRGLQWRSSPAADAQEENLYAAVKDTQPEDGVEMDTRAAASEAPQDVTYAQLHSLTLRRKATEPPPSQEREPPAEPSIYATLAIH
T12 sequence (Q6PI73 24-481): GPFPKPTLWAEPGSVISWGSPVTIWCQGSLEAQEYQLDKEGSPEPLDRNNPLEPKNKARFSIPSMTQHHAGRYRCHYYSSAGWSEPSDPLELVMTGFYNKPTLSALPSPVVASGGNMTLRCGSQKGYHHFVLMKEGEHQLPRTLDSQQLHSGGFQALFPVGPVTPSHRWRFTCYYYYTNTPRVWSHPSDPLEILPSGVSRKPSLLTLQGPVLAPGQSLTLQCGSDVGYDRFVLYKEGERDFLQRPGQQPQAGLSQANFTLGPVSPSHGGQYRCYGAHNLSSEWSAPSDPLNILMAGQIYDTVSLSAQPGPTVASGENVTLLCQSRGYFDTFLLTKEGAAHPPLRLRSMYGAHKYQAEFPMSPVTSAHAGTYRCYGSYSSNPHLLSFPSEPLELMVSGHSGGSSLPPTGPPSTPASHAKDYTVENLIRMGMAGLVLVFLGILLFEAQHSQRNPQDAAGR
T11 sequence (Q8N6C8 24-439): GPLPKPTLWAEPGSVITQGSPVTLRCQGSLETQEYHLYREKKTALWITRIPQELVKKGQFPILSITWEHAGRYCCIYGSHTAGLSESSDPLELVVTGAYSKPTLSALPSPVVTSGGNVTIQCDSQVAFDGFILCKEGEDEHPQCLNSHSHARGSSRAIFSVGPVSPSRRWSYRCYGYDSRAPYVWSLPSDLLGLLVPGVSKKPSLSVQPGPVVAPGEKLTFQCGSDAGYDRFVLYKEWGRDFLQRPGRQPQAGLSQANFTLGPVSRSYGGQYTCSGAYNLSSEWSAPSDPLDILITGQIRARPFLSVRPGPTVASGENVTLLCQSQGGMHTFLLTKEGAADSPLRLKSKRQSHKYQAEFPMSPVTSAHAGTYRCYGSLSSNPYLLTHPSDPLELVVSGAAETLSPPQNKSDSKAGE

B1: 10F10.1.IgG1.3 (antibody, V domains shown)
VH: QVQLVESGGGVVQPGRSLRLSCAASGFTFSSYAMHWVRQAPGKGLEWVAIISYDEYNKYYADSVKGRFTISRDNSKNTLYLQMNSLRAEDTAVYYCAREWVGIRYWGQGTLVTVSS
VL: AIQLTQSPSSLSASVGDRVTITCRASQGISSALAWYQQKPGKAPKLLIYDASSLESGVPSRFTGSGSGTDFTLTISSLQPEDFATYYCQQFNSYPITFGQGTRLEIKR
notes: Germline reversion mutant of 10F10 (light chain F36Y); heavy chain of 10F10; IgG1.3; also called 10F10.VK-F36Y.IgG1.3
In assay [1], B1 returned a Kd of 56 nM and an app. act. of 88%. Moreover, in [2], the “fold loss in overall affinity relative to parent 10F10” value was roughly 3 fold. In assay [3], the Kd came to 46 nM, the app. act. is 94%, the koff is roughly 0.07 s⁻¹ and the kon was determined as 1.5e+06 M⁻¹ s⁻¹.

B2: 10F10.3.IgG1.3 (antibody, V domains shown)
VH: QVQLVESGGGVVQPGRSLRLSCAASGFTFSSYAMHWVRQAPGKGLEWVAIISYDEYNKYYADSVKGRFTISRDNSKNTLYLQMNSLRAEDTAVYYCAREWVGIRYWGQGTLVTVSS
VL: AIQLTQSPSSLSASVGDRVTITCRASQGISSALAWYQQKPGKAPKLLIYDASSLESGVPSRFSGSGSGTDFTLTISSLQPEDFATYYCQQFNSYPITFGQGTRLEIKR
notes: Germline reversion mutant of 10F10 (light chain F36Y and T63S); heavy chain of 10F10; IgG1.3; also called ILT4.11.IgG1.3; 10F10.VK-F36Y/T63S.IgG1.3
With B2, in assay [1], binding was put at a Kd of 52 nM and the app. act. turned out to be 115%. Also, the “fold loss in overall affinity relative to parent 10F10” value in [2] was roughly 3 fold. In [3], this molecule had a Kd of 47 nM, an app. act. of 123%, a koff of roughly 0.08 s⁻¹ and a kon of 1.7e+06 M⁻¹ s⁻¹.

B3: 21D9.IgG1.1f (antibody)
heavy: EGQLLESGGDLVQPGGSLRLSCATSGFTFSNYAMNWVRQAPGKGLEWISVISVSGGSTYYADSVKGRFTISRDNSKNTLYLQMNSLRAEDTAVYYCAKDYYYDSGSYYDSFFDYWGQGTLVTVSSASTKGPSVFPLAPSSKSTSGGTAALGCLVKDYFPEPVTVSWNSGALTSGVHTFPAVLQSSGLYSLSSVVTVPSSSLGTQTYICNVNHKPSNTKVDKRVEPKSCDKTHTCPPCPAPEAEGAPSVFLFPPKPKDTLMISRTPEVTCVVVDVSHEDPEVKFNWYVDGVEVHNAKTKPREEQYNSTYRVVSVLTVLHQDWLNGKEYKCKVSNKALPSSIEKTISKAKGQPREPQVYTLPPSREEMTKNQVSLTCLVKGFYPSDIAVEWESNGQPENNYKTTPPVLDSDGSFFLYSKLTVDKSRWQQGNVFSCSVMHEALHNHYTQKSLSLSPGK
light: not shown
notes: Parent 21D9 in IgG1.1f (L234A, L235E, G237A, A330S, P331S); also called ILT4.6.IgG1.1
In the case of B3, the EC50 in assay [4] was 0.046 µg/mL. Further, the figures for the IC50 in assay [5] and in [6] were 0.918 µg/mL and 2.88 µg/mL, respectively. The binding result in [7], in [8], in assay [9], in [10], in assay [11] and in assay [12] was “no binding (tested: 20 µg/ml)” each time. The binding result in assay [13], in assay [14] and in [15] was “no binding (tested: 20 µg/ml)” throughout.
